Assay: soluble on expression in E. coli; label from the status in PepcDB or PDB records

| Sequence | soluble on expression in E. coli |
| --- | --- |
| MLSVGRGIADITGEAADCGMLGYGKSDQRTAGIHQRLRSRAFVFRDDSQDGDARLLLIVAELPLPMQNVNEEVLRRLADLYGDTYSEQNTLITATHTHAGPGGYCGYLLYNLTTSGFRPATFAAIVDGIVESVEHAHADVAPAEVSLSHGELYGASINRSPSAFDRNPPADKAFFPKRVDPHTTLVRIDRGEATVGVIHFFATHGTSMTNRNHLISGDNKGFAAYHWERTVGGADYLAGQPDFIAAFAQTNPGDMSPNVDGPLSPEAPPDREFDNTRRTGLCQFEDAFTQLSGATPIGAGIDARFTYVDLGSVLVRGEYTPDGEERRTGRPMFGAGAMAGTDEGPGFHGFRQGRNPFWDRLSRAMYRLARPTAAAQAPKGIVMPARLPNRIHPFVQEIVPVQLVRIGRLYLIGIPGEPTIVAGLRLRRMVASIVGADLADVLCVGYTNAYIHYVTTPEEYLEQRYEGGSTLFGRWELCALMQTVAELAEAMRDGRPVTLGRRPRPTRELSWVRGAPADAGSFGAVIAEPSATYRPGQAVEAVFVSALPNNDLRRGGTYLEVVRREGASWVRIADDGDWATSFRWQRQGRAGSHVSIRWDVPGDTTPGQYRIVHHGTARDRNGMLTAFSATTREFTVV | soluble |
| MLTALKTDTGKIRQHNEDDAGIFKGKDEFILAVVADGMGGHLAGDVASKMAVKAMGEKWNEAETIPTAPSECEKWLIEQILSVNSKIYDHAQAHEECQGMGTTIVCALFTGKTVSVAHIGDSRCYLLQDDDFVQVTEDHSLVNELVRTGEISREDAEHHPRKNVLTKALGTDQLVSIDTRSFDIEPGDKLLLCSDGLTNKVEGTELKDILQSDSAPQEKVNLLVDKANQNGGEDNITAVLLELALQVEEGEDQC | soluble |
| MLTLYTSPSCTSCRKARAWLQEHEIPFKERNIFSEPLNIEELKAILIMTEDGTEEIISTRSKVFQKLNMDLDELPLQDLLELVQENPGLLRRPIMIDEKRLQVGFNEDEIRRFLPRDVRQLELRQAQLMAGL | soluble |
| MLTSEQVKAMIEGVAKCEHIEVEGDGHHFFAVIVSSEFEGKARLARHRLIKDGLKAQLESNELHALSISVAATPAEWAAKAQ | not soluble |
| MLTYYRDLFSLKLASCLDMEYSSFENATKINFREFFPEARSLTFSKKPDAKQGMQGGGMLKMLIDEKETIFYIKAFTGLNEENAIKLNELVVCKILHRMGKGPNYWFYINNHFSKKAVYMASKEVVGCG | not soluble |
| MLVAERHEKIIALVTEKGSVRVSELSQLFNVTEETIRRDLEKLESERKLQRSHGGAVSIKEDTEAPYFEREIRNVNEKQAVAAQAVTYVTTNDRIILDASTTAWYMAKRLPDVPLTVLTNSMKVAMELAKREKITVITVGGTLLRKSLSFVGPQTNQTLELYHVNKAFISCQGVHAKRGISDSNEMQALVKQKMIDISDHVFLLADHTKFGKQAFSRITSMETIDTIITDSKTSEEQISDFQELEMDVIRALEHHHHHH | soluble |
| MLVAQHTVYFPDAFLTQMREAMPSTLSFDDFLAACQRPLRRSIRVNTLKTSVADFLRLTAPYGWTLTPIPWCEEGFWIERDDEDALPLGSTAEHLSGLFYIQEASSMLPVAALFADGNAPQRVMDVAAAPGSKTTQIAARMNNEGAILANEFSASRVKVLHANISRCGISNVALTHFDGRVFGAALPEMFDAILLDAPCSGEGVVRKDPDALKNWSPESNQEIAATQRELIDSAFHALRSGGTLVYSTCTLNREENESVCLWLKETYPDAVEFLPLGDLFPGANKALTEEGFLHVFPQIYDCEGFFVARLRKTQAIPALPTPKYKVGNFPFSPVKDREAAQIRQAAASVGLNWDGNLRLWQRDKEVWLFPVGIEALIGKVRFSRLGIKLAETHNKGYRWQHEAVIALASPDNENAFELTPQEAEEWYRGRDVYPQAAPVADDVLVTFQHQPIGLAKRIGSRLKNSYPRELVRDGKLFTSNA | soluble |
| MLVAYDSMTGNVKRFIHKLNMPAVQIDEDLVIDEDFILITYTTGFGNVPERVLDFLERNNEKLKGVSASGNRNWGDMFGASADKISTKYEVPIVSKFELSGTNNDVEYFKERVREIATH | soluble |
| MLVGLDIGTSKIVAIVAEVLEDGQLNIVGMGHTPSRGLKRGMVVNIESTVQAIQRALEEAELMADCKIHEVFVGIAGSHIKSVNSHGMVAIKDREVTKMDIDRVIETARAVTIPPDH | not soluble |
| MLVLGGISLFLFMVKQNEKAMLNQEKERAAVVLADNETRVLFFYKDTCADCQKVYPTVYEEDQGENNIVFINLNQPKNRHYIKTYTLEKVPTFVTPKRRYVGTDTRKIQQLIAENNDERSEDLEHHHHHH | not soluble |
| MLVLNPFSEKAVSPEDRDMVLRRGIAALDCSWKKVKKSSVIFQTARNHRSLPFLVAANPTNYGKPCILSTAEAVAATLYIVGLKDIASDIMSYFKWGPHFLDLNRELLEAYSRAENSLEVVEIQKKFIGGLEHHHHHH | soluble |
| MLVMIDTKRPPVYIDSQVGLNTFFFIRGQYPSLNLFVSFITTVKTLGNNVSRTHGDDAESDCVCDSVSNVDENNEVVDEQDDVEDDKTDEDEEEGDNEDGDGYDAY | not soluble |
| MLVQGAGGNTSIKQAGVLWIKASGTWLKNARDDEIMVPVALAPLLDAVSHRSPAAEAAGQFTLADLNPRQLRPSIETTVHALLPQKIVVHVHCVETISIAVQANAEALLEGRLRGLDWAFVPYRRPGLPLAQAIAERLKPATNVLVLGNHGLVVAADTVAEAALLLQRVTGLLARQPRPAPPPDLDALLRLAAGSDYRLPALEHHHHHH | soluble |
| MLVTGLEILRKARAEGYGVGAFNTNNMEFTQAILEAAEEMKSPVILALSEGAMKYGGRALTRMVVALAQEARVPVAVHLDHGSSYESVLKALREGFTSVMIDKSHEDFETNVRETKRVVEAAHAVGVTVEAELGRLAGIEEHVAVDEKDALLTNPEEARIFMERTGADYLAVAIGTSHGAYKGKGRPFIDHPRLARIAELVPAPLVLHGASAVPQELVERFRAAGGEIGEASGIHPEDIKKAISLGIAKINTDTDLRLAFTALVRETLGKNPKEFDPRKYLGPAREAVKEVVKSRMELFGSVGRA | soluble |
| MLYKSSLAVAISALIAGQVSAAGFQVAEHSASGLGRAFSGEAAVADNASVLARNPAAMMLFETAQFSGALSIVDPEVNVDDLSNNQSMKDVAPLQIVPAAYYIRPINDQWAWGLAMFTTYGVATDYPNEIYAGDLAGDTSLISVNLNPNIAYRVNPELSLGFGLDLVAAKAKLTRHKGGLAPFMGGGNPSDNLIGMTGETLALGWNIGALYELDEQNRIGFGYRSRVKLNFDDGEFSSYDSGIATSAVVPGQLKIELPAIWELSGFHQLNEQWAVHYSYQQTDWSSFEELTATSSQCKNGTCFQKIEQYQDNGRWSVGATYTLNTTWTLRAGLAFDEQAGKATLSIPDSDRFWYSAGLTYTLTPQLTMDAGFALVQSRKGSFTEKNQIGQNLQFESEAVAYISALQFNYRFH | not soluble |
| MLYVLNKCNGLESVEIIHYNNETTDMKELVENPIIVNCKQVTISTVGGMYGSRELLMNFQIERLISGDSAIGTRFRQGSYEPDHVMSLVNSCFKDRVVNFQDHQGLRLRTDNLAKQILVKKCCRDDFEFEWGVSCRVIPSNLQDIDFEEDWPIWTDIDSDEDCDYSSDDEYEYQYNSDSD | not soluble |
| MMAAREQRSFRQLSLLRQFEGQSLLCASMNIPGPIKCSESLNKTFQSIINLVKEDLRGRIIFEREVHQKTGWEYYCLSDLPVSELKTKMIAIETKISIGRLMDLDVLHLVNGIPQPISRQELGFPRRQCYICQNDAKVCSRSRKHSVIEMQEAIAKFIKINH | not soluble |
| MMDASKELQVLHIDFLNQDNAVSHHTWEFQTSSPVFRRGQVFHLRLVLNQPLQSYHQLKLEFSTGPNPSIAKHTLVVLDPRTPSDHYNWQATLQNESGKEVTVAVTSSPNAILGKYQLNVKTGNHILKSEENILYLLFNPWCKEDMVFMPDEDERKEYILNDTGCHYVGAARSIKCKPWNFGQFEKNVLDCCISLLTESSLKPTDRRDPVLVCRAMCAMMSFEKGQGVLIGNWTGDYEGGTAPYKWTGSAPILQQYYNTKQAVCFGQCWVFAGILTTVLRALGIPARSVTGFDSAHDTERNLTVDTYVNENGEKITSMTHDSVWNFHVWTDAWMKRPDLPKGYDGWQAVDATSQERSQGVFCCGPSPLTAIRKGDIFIVYDTRFVFSEVNGDRLIWLVKMVNGQEELHVISMETTSIGKNISTKAVGQDRRRDITYEYKYPEGSSEERQVMDHAFLLLSSEREHRRPVKENFLHMSVQSDDVLLGNSVNFTVILKRKTAALQNVNILGSFELQLYTGKKMAKLCDLNKTSQIQGQVSEVTLTLDSKTYINSLAILDDEPVIRGFIIAEIVESKEIMASEVFTSFQYPEFSIELPNTGRIGQLLVCNCIFKNTLAIPLTDVKFSLESLGISSLQTSDHGTVQPGETIQSQIKCTPIKTGPKKFIVKLSSKQVKEINAQKIVLITK | soluble |
| MMGCMMIYNPKQLANHLKLIRTKHNLTQTELAKKVGVKQSTLSSFENHPETTQLQTLFKILHALEVHCIIQEQVPASHEDNLDDEAW | not soluble |
| MMGFSFYFFNEERYKMDKKDYKINKQNATAAKQQPLSPAAQRALNEAEERRKHETNEEKPLENGGRGGKDPSRYGDWEIKGRAIDFLEHHHHHH | not soluble |
| MMGYNFNEKPLLIFWETTKACGLKCEHCRASAILEALPDEMNYDESIDFLSHIKEFGKPYPIVILTGGDMLRKRRINDIMKYLKDAEIPFSVSPAVTEMLTDERIKSFLEFGVSSVSISLDGMKDVHEKVRGVPGVFDDTVRVVEKLIKEGIPMQINTVVMRSTVNDLPKVLKLILDKSVKVWEVFFLIKTGRGIDREDLSPEEYEDVNKYLLYATGYGIRIRTVESPIFRRITLQSGSTGRIEGGPLYQKLVSETEKIIGKKPSAIAKSVIPTRDGYGIIFVGHNGDVYPSGFLPYKVGNVKNQSIVDIYRKSELLRKIRDPDNLVGKCGFCEYRSVCGGSRARAFAYSSDPFGTDPSCSYMPKSVVSA | not soluble |
| MMKFSVIVPTYNSEKYITELLNSLAKQDFPKTEFEVVVVDDCSTDQTLQIVEKYRNKLNLKVSQLETNSGGPGKPRNVALKQAEGEFVLFVDSDDYINKETLKDAAAFIDEHHSDVLLIKMKGVNGRGVPQSMFKETAPEVTLLNSRIIYTLSPTKIYRTALLKDNDIYFPEELKSAEDQLFTMKAYLNANRISVLSDKAYYYATKREGEHMSSAYVSPEDFYEVMRLIAVEILNADLEEAHKDQILAEFLNRHFSFSRTNGFSLKVKLEEQPQWINALGDFIQAVPERVDALVMSKLRPLLHYARAKDIDNYRTVEESYRQGQYYRFDIVDGKLNIQFNEGEPYFEGIDIAKPKVKMTAFKFDNHKIVTELTLNEFMIGEGHYDVRLKLHSRNKKHTMYVPLSVNANKQYRFNIMLEDIKAYLPKEKIWDVFLEVQIGTEVFEVRVGNQRNKYAYTAETSALIHLNNDFYRLTPYFTKDFNNISLYFTAITLTDSISMKLKGKNKIILTGLDRGYVFEEGMASVVLKDDMIMGMLSQTSENEVEILLSKDIKKRDFKNIVKLNTAHMTYSLKLEHHHHHH | soluble |
| MMKKRASHHLVICTLIDTLRFRLSSRKAISMNAFNKLVKHSKKISNFNHLSSIVGWDQAAVMPSGGAEARSQAMAELSVHIHGLMTQPQLADWFAEAESETLNIEQQATLREMKRQWQQATVLPEALVEAQSLAGSKCEHAWRSQRKNNDWTGFEKNWAEVVKLSQEEAQIRAEATGKTPYDAMLELYEPGTTTEQLNRVFSDVKTWLPSLIDVVIEKQSSESFIAPKGHYPAESQKALGLDVMKLLQFDFNHGRLDESVHPFCGGVPSDVRITTRYNESEFVQSLMGIVHETGHARYEQGLPKHLAGTPAGEARSMGIHESQSLFFEMQVGRSPAFIAHLAELAGKHFSAMNDPVFRVENIQKLYTRVQKDFIRVDADELTYPAHVILRFEIERDLMNGKIKHTDVPELWDQKMQAYLGLSTKGNDQNGCMQDIHWTDGSFGYFPSYTLGAMYAAQFMAAMKKTVDVDGAIRRGDLSPIFTWLSENIWSKGSLFSTDELVKQATGETLNPEHFKAHLSQRYLK | not soluble |

From the DeepSol protein solubility set
